This data set has as its target hSOX2-HMG (Homo sapiens, UniProt P48431). The data set can be described thus: EMSA. (In general: In EMSA bound probe runs differently from free probe, usually more slowly.)

This note sets out measurements from publication PMC12378428.

B1: P1/P2 SOX2 binding DNA (dsDNA)
DNA 1: GGAAACAATGGA
DNA 2: TCCATTGTTTCC
For orientation: Kd means a measure of binding affinity in units of concentration. The low end stands for tighter binding, the high end for weaker binding. On to B1, for which the dissociation constant Kd is ~610 nM.
